Patent US9766250B2, “Method for detecting protein-protein interaction” (MEDICAL & BIOLOGICAL LABORATORIES CO., LTD., priority 2011, dated 2017)

Tests used:
[1] = biological target: T1, mTOR(FRB) and FKBP12 interaction (Homo sapiens, UniProt P42345+P62942); assay: Degree of fluorescent focus (assembly) formation after rapamycin, fluorescent proteins fused to mTOR(FRB) (Example 8, Table 1); assay type: cell-based; parameters: key to degree of fluorescent focus formation, Tankyrase (SAM): +++: fluorescent foci were observed in 50% or more of the HeLaS3 cells; ++: fluorescent foci were observed in 50% or less of the HeLaS3 cells; +: fluorescent foci were observed in 293T cells expressing a larger amount of proteins than that in the HeLaS3 cells; conditions: fluorescent protein fused to mTOR(FRB); for degree of fluorescent focus formation, DGKd (SAM): with FKBP12-DGKd(SAM); for degree of fluorescent focus formation, TEL (SAM): with FKBP12-TEL(SAM); for degree of fluorescent focus formation, Tankyrase (SAM): with FKBP12-Tankyrase(SAM), some combinations in 293T cells; for degree of fluorescent focus formation, P62 (PB1): with p62(PB1)-FKBP12
T1 construct: region having the 2025th to 2114th amino acids of the mTOR protein; expressed in transfected cells; host or cells: HeLaS3; 293T for some combinations with FKBP12-Tankyrase(SAM)
Experimental: Note that plasmid DNAs encoding fusion proteins composed of mTOR(FRB) and the corresponding fluorescent proteins were prepared as appropriate by the same method as that described in Example 2. Moreover, regarding the combinations of FKBP12-Tankyrase(SAM) with mKO2, mKeima, mMiCy1, mKO1, MiCy1, and TGuv, the test was conducted by introducing the genes into 293T cells. Specifically, the 293T cells were cultured in DMEM High glucose (manufactured by SIGMA ALDRICH CO.) containing 10% FBS (manufactured by Equitech-Bio Inc.). Moreover, the 293T cells were seeded onto an 8-well chamber (manufactured by Nunc A/S) 6 hours before the plasmid DNAs were introduced. Further, at the time of the transfection, 200 ng of the plasmid DNA encoding FKBP12-Tankyrase(SAM) and 200 ng of one of the plasmid DNAs encoding fusion proteins composed of the fluorescent proteins and mTOR(FRB) were diluted with 30 μl of OptiMEM (manufactured by Life Technologies Corporation), and 1.2 μl of TurboFect Transfection Reagent (manufactured by Thermo Fisher Scientific Inc.) was added thereto and stirred. Then, the resultant was further mixed with 300 μl of the culture solution, subsequently added to the 293T cells, and observed 48 hours later.

[2] = biological target: T1, mTOR(FRB) and FKBP12 interaction; assay: Degree of fluorescent focus (assembly) formation after rapamycin with TFG(PB1) (Example 9, Table 2); assay type: cell-based; parameters: key: ++: fluorescent foci were observed in 50% or less of the HeLaS3 cells; +: fluorescent foci were observed in the 293T cells expressing a larger amount of proteins than that in the HeLaS3 cells; conditions: fluorescent protein fused to mTOR(FRB), KO1 and dAG (AB) in 293T cells

T1 sequence (P42345 2025-2114): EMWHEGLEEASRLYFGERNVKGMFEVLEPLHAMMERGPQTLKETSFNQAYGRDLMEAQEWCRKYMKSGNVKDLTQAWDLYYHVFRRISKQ
T1 sequence (P62942 whole entry, the tested form may be a part): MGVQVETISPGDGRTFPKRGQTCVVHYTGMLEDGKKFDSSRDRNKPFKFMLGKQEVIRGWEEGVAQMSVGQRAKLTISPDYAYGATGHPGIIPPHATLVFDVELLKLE

Molecule	degree of fluorescent focus formation, DGKd (SAM) [1]	degree of fluorescent focus formation, TEL (SAM) [1]	degree of fluorescent focus formation, Tankyrase (SAM) [1]	degree of fluorescent focus formation, P62 (PB1) [1]	degree of fluorescent focus formation, TFG (PB1) [2]
monomericMidoriishi-Cyan1 (protein, Synthetic sequence mMiCy1) MVSYSKQGIAQEMRTKYRMEGSVNGHEFTIEGVGTGNPYEGKQTSELVIIKPKGKPLPFSFDILSTVFQYGNRCFTKYPADMPDYFKQAFPDGMSYERSFLFEDGGVATASWSIRLEGNCFIHNSIYHGTNFPADGPVMKKQTIGWDKSSEKMSVAKEVLRGDVTQFLLLEGGGYQRCQLHSTYKTEKPVAMPPSHVVEHQIVRTDLGQTAKGFKVKLEEHAEAHVNPLKVK	+++ (fluorescent foci were observed in 50% or more of the HeLaS3 cells)	+++ (fluorescent foci were observed in 50% or more of the HeLaS3 cells)	+	+++ (fluorescent foci were observed in 50% or more of the HeLaS3 cells)	
dimeric Azami-Green (AB) (protein, Synthetic sequence dAG(AB)) MVSVIKPEMKIKLCMRGTVNGHNFVIEGEGKGNPYEGTQILDLNVTEGAPLPFAYDILTTVFQYGNRAFTKYPADIQDYFKQTFPEGYHWERSMTYEDQGICTATSNISMRGDCFFYDIRFDGVNFPPNGPVMQKKTLKWEPSTEKMYVRDGVLKGDVNMALLLEGGGHYRCDFKTTYKAKKDVRLPDAHKVDHRIEILKHDKDYNKVKLYENAVARYSMLPSQAK	+++ (fluorescent foci were observed in 50% or more of the HeLaS3 cells)	+++ (fluorescent foci were observed in 50% or more of the HeLaS3 cells)	++ (fluorescent foci were observed in 50% or less of the HeLaS3 cells)	+++ (fluorescent foci were observed in 50% or more of the HeLaS3 cells)	+
dimeric Azami-Green (AC) (protein, Synthetic sequence dAG(AC)) MVSVIKPEMKIKLCMRGTVNGHNFVIEGEGKGNPYEGTQILDLNVTEGAPLPFAYDILTTVFQYGNRAFTKYPADIQDYFKQTFPEGYHWERSMTYEDQGICTATSNISMRGDCFFYDIRFDGTNFPPNGPVMQKKTLKWEPSTEKMYVRDGVLKGDVNMALLLEGGGHYRCDFKTTYKAKKDVRLPDYHFVDHRIEILKHDKDYNKVKLYENAVARYSMLPSQAK	+++ (fluorescent foci were observed in 50% or more of the HeLaS3 cells)	+++ (fluorescent foci were observed in 50% or more of the HeLaS3 cells)	++ (fluorescent foci were observed in 50% or less of the HeLaS3 cells)	+++ (fluorescent foci were observed in 50% or more of the HeLaS3 cells)	++ (fluorescent foci were observed in 50% or less of the HeLaS3 cells)
Momiji: fluorescent protein capable of homotetramerization, SEQ ID NO: 149 (protein, Synthetic sequence Momiji) MVSVIKDEMKVNLRMEGSVNGHDFVIDGLGSGKPKEGTQTIELKVVKGGPLPFAYDILTTAFHYGNRVFAKYPKDIPNYFEQSFPEGYSWERSMIFEDGGICIARNDITMDGGTFYNKVRFYGVNFPPNGPVMQKKTQKWEQSTEKMYARDGVLTGDINMALLLKGGGHYRCDFRTTYKAKEKGVKLPGYHFIDHCIEILSHRNDYNNVTLFEHAVARSGLQDKEKQQQ	+++ (fluorescent foci were observed in 50% or more of the HeLaS3 cells)	+++ (fluorescent foci were observed in 50% or more of the HeLaS3 cells)	+++ (fluorescent foci were observed in 50% or more of the HeLaS3 cells)	+++ (fluorescent foci were observed in 50% or more of the HeLaS3 cells)	++ (fluorescent foci were observed in 50% or less of the HeLaS3 cells)
monomeric Kusabira-Orange 2 (protein, Synethetic sequence of monomeric version pf KO(Kusabira-Orange)) MVSVIKPEMKMRYYMDGSVNGHEFTIEGEGTGRPYEGHQEMTLRVTMAEGGPMPFAFDLVSHVFCYGHRVFTKYPEEIPDYFKQAFPEGLSWERSLEFEDGGSASVSAHISLRGNTFYHKSKFTGVNFPADGPIMQNQSVDWEPSTEKITASDGVLKGDVTMYLKLEGGGNHKCQMKTTYKAAKEILEMPGDHYIGHRLVRKTEGNITEQVEDAVAHS	+++ (fluorescent foci were observed in 50% or more of the HeLaS3 cells)	++ (fluorescent foci were observed in 50% or less of the HeLaS3 cells)	+	+++ (fluorescent foci were observed in 50% or more of the HeLaS3 cells)	
Kusabira-Cyan1 (protein, Synthetic sequence KCy1) MVSVIKPEMKMRYYMDGSVNGHEFTVEGEGTGRPYEGKHKITLDVTKGGPLPFAFDLLSTVFSYGNRALTKYPDDIPDYFKQCFPGGYSWERKFEFEDGGLAIAKAEISLKGNCFEHKSTIEGTFPDSSPIMQNKTLGWEPSTEKMTVRDGSMKGDDAAYLKLVGGGNHKCYFTTTYTAKKKIPNLPGSHFIGHRISSVVEGTKIKVMEDAIAHLYPFNGS	+++ (fluorescent foci were observed in 50% or more of the HeLaS3 cells)	+++ (fluorescent foci were observed in 50% or more of the HeLaS3 cells)	++ (fluorescent foci were observed in 50% or less of the HeLaS3 cells)	+++ (fluorescent foci were observed in 50% or more of the HeLaS3 cells)	
TGuv: fluorescent protein capable of homotetramerization, SEQ ID NO: 147 (protein, Synthetic sequence TGuv) MVSVIGKDMIMKLHVEGCVNGHSFKIEGDGKGKPYEGDQTVKLRVTEGGPLPFAFDILSASMCYGNRCFTKYPAEIPDIFKQTFPEGYSWERALTFEDGGFASSSSHISVRGNCFFYDVKYHGVNFPSNGPIMQRKTIGWQPSTEKLYIGEGTLKGDDTMFLKLEGGGTHKCHVLTTYKTKKDVQMPDSHFIDHRLLTSHLDKECNNVELREHAVARNSSLPSR	+++ (fluorescent foci were observed in 50% or more of the HeLaS3 cells)	+++ (fluorescent foci were observed in 50% or more of the HeLaS3 cells)	+	+++ (fluorescent foci were observed in 50% or more of the HeLaS3 cells)	
